# Test results: patent publication US20240117018A1
# What was measured:
# Experiment in all cases: cell-based or functional assay
# [1] = biological target: HIV-1 Env pseudovirus Du156.12 (HIV-1)
# [2] = biological target: HIV-1 Env pseudovirus 249M B10 (HIV-1)
# [3] = biological target: HIV-1 Env pseudovirus Ce704809221_1B3 (HIV-1)
# [4] = biological target: HIV-1 Env pseudovirus CAAN5342.A2 (HIV-1)
# [5] = biological target: HIV-1 Env pseudovirus 62357_14_D3_4589 (HIV-1)
# [6] = biological target: HIV-1 Env pseudovirus CAP210.2.00.E8 (HIV-1)
# [7] = biological target: HIV-1 Env pseudovirus CNE52 (HIV-1)
# [8] = biological target: HIV-1 Env pseudovirus Ce2060_G9 (HIV-1)
# [9] = biological target: HIV-1 Env pseudovirus ZM249M.PL1 (HIV-1)
# [10] = biological target: HIV-1 Env pseudovirus WITO4160.33 (HIV-1)
# [11] = biological target: HIV-1 Env pseudovirus CNE19 (HIV-1)
# [12] = biological target: HIV-1 Env pseudovirus ZM197M.PB7 (HIV-1)
# [13] = biological target: HIV-1 Env pseudovirus CNE30 (HIV-1)
# [14] = biological target: HIV-1 Env pseudovirus CNE20 (HIV-1)
# [15] = biological target: HIV-1 Env pseudovirus AC10.0.29 (HIV-1)
# [16] = biological target: HIV-1 Env pseudovirus QH0692.42 (HIV-1)
# [17] = biological target: HIV-1 Env pseudovirus CNE21 (HIV-1)
# [18] = biological target: HIV-1 Env pseudovirus TRJO4551.58 (HIV-1)
# [19] = biological target: Env of HIV-1 pseudovirus Q259.d2.17 (HIV-1)
# [20] = biological target: Env of HIV-1 pseudovirus RHPA4259.7 (HIV-1)
# [21] = biological target: Env of HIV-1 pseudovirus SC05_8C11_2344 (HIV-1)
# [22] = biological target: Env of HIV-1 pseudovirus Q842.d12 (HIV-1)
# [23] = biological target: Env of HIV-1 pseudovirus T257-31 (HIV-1)
# [24] = biological target: Env of HIV-1 pseudovirus CAAN5342.A2 (HIV-1)
# [25] = biological target: Env of HIV-1 pseudovirus CNE20 (HIV-1)
# [26] = biological target: Env of HIV-1 pseudovirus WEAU_d15_410_787 (HIV-1)
# [27] = biological target: Env of HIV-1 pseudovirus 6240_08_TA5_4622 (HIV-1)
# [28] = biological target: Env of HIV-1 pseudovirus QH0692.42 (HIV-1)
# [29] = biological target: Env of HIV-1 pseudovirus 246F C1G (HIV-1)
# [30] = biological target: Env of HIV-1 pseudovirus Q769.d22 (HIV-1)
# [31] = biological target: HIV-1 Env pseudovirus T255-34 (HIV-1)
# [32] = biological target: HIV-1 Env pseudovirus X2131_C1_B5 (HIV-1)
# [33] = biological target: HIV-1 Env pseudovirus P1981_C5_3 (HIV-1)
# [34] = biological target: HIV-1 Env pseudovirus C3347.c11 (HIV-1)
# [35] = biological target: HIV-1 Env pseudovirus P0402_c2_11 (HIV-1)
# [36] = biological target: HIV-1 Env pseudovirus X1193_c1 (HIV-1)
# [37] = biological target: HIV-1 Env pseudovirus 620345.c01 (HIV-1)
# [38] = biological target: HIV-1 Env pseudovirus 235-47 (HIV-1)
substance,measurement,setting,value
N49P11 (antibody),IC50,[1],2.4 µg/mL
same,IC80,[1],12 µg/mL
same,MPI,[1],100
same,IC50,[2],3.54 µg/mL
same,IC80,[2],12.9 µg/mL
same,MPI,[2],100
same,IC50,[3],0.644 µg/mL
same,IC80,[3],3.3 µg/mL
same,MPI,[3],100
same,IC50,[4],9.03 µg/mL
same,IC80,[4],20.8 µg/mL
same,MPI,[4],100
same,IC50,[5],0.599 µg/mL
same,IC80,[5],3.56 µg/mL
same,MPI,[5],100
same,IC50,[6],5.12 µg/mL
same,IC80,[6],19.4 µg/mL
same,MPI,[6],100
same,IC50,[7],0.06 µg/mL
same,IC80,[7],0.307 µg/mL
same,MPI,[7],100
same,IC50,[8],3.33 µg/mL
same,IC80,[8],13.2 µg/mL
same,MPI,[8],100
same,IC50,[9],3.64 µg/mL
same,IC80,[9],17.4 µg/mL
same,MPI,[9],100
same,IC50,[10],4.86 µg/mL
same,IC80,[10],13.2 µg/mL
same,MPI,[10],100
same,IC50,[11],0.437 µg/mL
same,IC80,[11],5.5 µg/mL
same,MPI,[11],100
same,IC50,[12],0.303 µg/mL
same,IC80,[12],1.59 µg/mL
same,MPI,[12],100
same,IC50,[13],0.889 µg/mL
same,IC80,[13],4.45 µg/mL
same,MPI,[13],100
same,IC50,[14],5.19 µg/mL
same,IC80,[14],22.6 µg/mL
same,MPI,[14],100
same,IC50,[15],5.52 µg/mL
same,IC80,[15],20 µg/mL
same,MPI,[15],100
same,IC50,[16],0.55 µg/mL
same,IC80,[16],2.65 µg/mL
same,MPI,[16],100
same,IC50,[17],7.4 µg/mL
same,IC80,[17],21.9 µg/mL
same,MPI,[17],100
same,IC50,[18],0.183 µg/mL
same,IC80,[18],0.656 µg/mL
same,MPI,[18],100
N49P7.2 (antibody),IC50,[1],0.058 µg/mL
same,IC80,[1],0.21 µg/mL
same,MPI,[1],100
same,IC50,[2],0.095 µg/mL
same,IC80,[2],0.349 µg/mL
same,MPI,[2],100
same,IC50,[3],0.874 µg/mL
same,IC80,[3],3.88 µg/mL
same,MPI,[3],100
same,IC50,[4],0.809 µg/mL
same,IC80,[4],2.81 µg/mL
same,MPI,[4],100
same,IC50,[5],0.03 µg/mL
same,IC80,[5],0.121 µg/mL
same,MPI,[5],100
same,IC50,[6],3.94 µg/mL
same,IC80,[6],21.7 µg/mL
same,MPI,[6],95
same,IC50,[7],0.03 µg/mL
same,IC80,[7],0.088 µg/mL
same,MPI,[7],100
same,IC50,[8],0.821 µg/mL
same,IC80,[8],2.81 µg/mL
same,MPI,[8],100
same,IC50,[9],0.073 µg/mL
same,IC80,[9],0.256 µg/mL
same,MPI,[9],100
same,IC50,[10],0.051 µg/mL
same,IC80,[10],0.215 µg/mL
same,MPI,[10],100
same,IC50,[11],0.033 µg/mL
same,IC80,[11],0.129 µg/mL
same,MPI,[11],100
same,IC50,[12],0.223 µg/mL
same,IC80,[12],1.37 µg/mL
same,MPI,[12],100
same,IC50,[13],0.362 µg/mL
same,IC80,[13],1.2 µg/mL
same,MPI,[13],100
same,IC50,[14],0.119 µg/mL
same,IC80,[14],0.574 µg/mL
same,MPI,[14],99
same,IC50,[15],44.2 µg/mL
same,IC80,[15],> 50 µg/mL
same,MPI,[15],53
same,IC50,[16],1.26 µg/mL
same,IC80,[16],4.42 µg/mL
same,MPI,[16],100
same,IC50,[17],48.3 µg/mL
same,IC80,[17],> 50 µg/mL
same,MPI,[17],51
same,IC50,[18],0.21 µg/mL
same,IC80,[18],0.673 µg/mL
same,MPI,[18],100
10-1074 (antibody),IC50,[19],> 50 µg/mL
same,IC80,[19],> 50 µg/mL
same,IC50,[20],0.021 µg/mL
same,IC80,[20],0.118 µg/mL
same,IC50,[21],0.052 µg/mL
same,IC80,[21],0.123 µg/mL
same,IC50,[22],> 50 µg/mL
same,IC80,[22],> 50 µg/mL
same,IC50,[23],> 50 µg/mL
same,IC80,[23],> 50 µg/mL
same,IC50,[24],0.007 µg/mL
same,IC80,[24],0.036 µg/mL
same,IC50,[25],< 0.001 µg/mL
same,IC80,[25],0.005 µg/mL
same,IC50,[26],0.104 µg/mL
same,IC80,[26],0.375 µg/mL
same,IC50,[27],0.068 µg/mL
same,IC80,[27],0.306 µg/mL
same,IC50,[28],0.191 µg/mL
same,IC80,[28],0.929 µg/mL
same,IC50,[29],0.022 µg/mL
same,IC80,[29],0.111 µg/mL
same,IC50,[30],> 50 µg/mL
same,IC80,[30],> 50 µg/mL
VRC01 (antibody),IC50 (Titer in TZM.bl cells),[1],0.09 µg/mL
same,IC80 (Titer in TZM.bl cells),[1],0.193 µg/mL
same,IC50 (Titer in TZM.bl cells),[2],0.13 µg/mL
same,IC80 (Titer in TZM.bl cells),[2],0.46 µg/mL
same,IC50 (Titer in TZM.bl cells),[3],0.55 µg/mL
same,IC80 (Titer in TZM.bl cells),[3],2.05 µg/mL
same,IC50 (Titer in TZM.bl cells),[4],0.82 µg/mL
same,IC80 (Titer in TZM.bl cells),[4],2.8 µg/mL
same,IC50 (Titer in TZM.bl cells),[5],0.96 µg/mL
same,IC80 (Titer in TZM.bl cells),[5],4.68 µg/mL
same,IC50 (Titer in TZM.bl cells),[6],> 50 µg/mL
same,IC80 (Titer in TZM.bl cells),[6],> 50 µg/mL
same,IC50 (Titer in TZM.bl cells),[31],0.7 µg/mL
same,IC80 (Titer in TZM.bl cells),[31],2.7 µg/mL
same,IC50 (Titer in TZM.bl cells),[8],0.29 µg/mL
same,IC80 (Titer in TZM.bl cells),[8],1.48 µg/mL
same,IC50 (Titer in TZM.bl cells),[9],0.05 µg/mL
same,IC80 (Titer in TZM.bl cells),[9],0.23 µg/mL
same,IC50 (Titer in TZM.bl cells),[10],0.15 µg/mL
same,IC80 (Titer in TZM.bl cells),[10],0.41 µg/mL
same,IC50 (Titer in TZM.bl cells),[32],0.51 µg/mL
same,IC80 (Titer in TZM.bl cells),[32],1.54 µg/mL
same,IC50 (Titer in TZM.bl cells),[12],0.36 µg/mL
same,IC80 (Titer in TZM.bl cells),[12],1.6 µg/mL
same,IC50 (Titer in TZM.bl cells),[33],0.46 µg/mL
same,IC80 (Titer in TZM.bl cells),[33],1.26 µg/mL
same,IC50 (Titer in TZM.bl cells),[15],2.2 µg/mL
same,IC80 (Titer in TZM.bl cells),[15],6.5 µg/mL
same,IC50 (Titer in TZM.bl cells),[34],0.17 µg/mL
same,IC80 (Titer in TZM.bl cells),[34],0.58 µg/mL
same,IC50 (Titer in TZM.bl cells),[35],0.21 µg/mL
same,IC80 (Titer in TZM.bl cells),[35],0.59 µg/mL
same,IC50 (Titer in TZM.bl cells),[36],0.11 µg/mL
same,IC80 (Titer in TZM.bl cells),[36],0.32 µg/mL
same,IC50 (Titer in TZM.bl cells),[16],1.5 µg/mL
same,IC80 (Titer in TZM.bl cells),[16],4.8 µg/mL
same,IC50 (Titer in TZM.bl cells),[37],> 50 µg/mL
same,IC80 (Titer in TZM.bl cells),[37],> 50 µg/mL
same,IC50 (Titer in TZM.bl cells),[18],0.08 µg/mL
same,IC80 (Titer in TZM.bl cells),[18],0.21 µg/mL
same,IC50 (Titer in TZM.bl cells),[38],0.04 µg/mL
same,IC80 (Titer in TZM.bl cells),[38],0.17 µg/mL
